Measurements: patent publication US20140249045

T1: RagD GTPase as used in the in vitro GTPase assay, Q9NQL2
T1 chain: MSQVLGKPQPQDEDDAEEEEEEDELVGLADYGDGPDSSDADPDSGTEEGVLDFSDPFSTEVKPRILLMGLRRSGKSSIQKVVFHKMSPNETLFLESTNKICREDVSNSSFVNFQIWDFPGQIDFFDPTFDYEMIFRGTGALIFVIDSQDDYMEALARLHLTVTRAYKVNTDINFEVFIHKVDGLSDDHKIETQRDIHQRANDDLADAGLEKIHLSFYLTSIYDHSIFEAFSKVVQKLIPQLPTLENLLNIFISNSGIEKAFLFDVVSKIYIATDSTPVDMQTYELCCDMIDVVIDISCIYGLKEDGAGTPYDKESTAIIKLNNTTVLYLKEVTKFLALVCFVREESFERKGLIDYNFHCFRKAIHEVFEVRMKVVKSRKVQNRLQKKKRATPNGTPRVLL


Target: T1, RagD GTPase as used in the in vitro …

Protein | GTP hydrolysis by RagD GTPase (in vitro GTPase assay) | GAP activity on RagD (in vitro GTPase assay)
His-LRS-(759-1176) (protein) MADAGILRLYTWVEWVKEMVANWDSLRSGPASTFNDRVFASELNAGIIKTDQNYEKMMFKEALKTGFFEFQAAKDKYRELAVEGMHRELVFRFIEVQTLLLAPFCPHLCEHIWTLLGKPDSIMNASWPVAGPVNEVLIHSSQYLMEVTHDLRLRLKNYMMPAKGKKTDKQPLQKPSHCTIYVAKNYPPWQHTTLSVLRKHFEANNGKLPDNKVIASELGSMPELKKYMKKVMPFVAMIKENLEKMGPRILDLQLEFDEKAVLMENIVYLTNSLELEHIEVKFASEAEDKIREDCCPGKPLNVFRIEPGVSVSLVNPQPSNGHFSTKIEIRQGDNCDSIIRRLMKMNRGIKDLSKVKLMRFDDPLLGPRRVPVLGKEYTEKTPISEHAVFNVDLMSKKIHLTENGIRVDIGDTIIYLVH | addition of WT LRS fragment (759-1176 a.a) enhanced GTP hydrolysis by RagD GTPase in dose- and time-dependent manner | 
LRS (759-1176 a.a) fragment H844A (protein) MADAGILRLYTWVEWVKEMVANWDSLRSGPASTFNDRVFASELNAGIIKTDQNYEKMMFKEALKTGFFEFQAAKDKYRELAVEGMARELVFRFIEVQTLLLAPFCPHLCEHIWTLLGKPDSIMNASWPVAGPVNEVLIHSSQYLMEVTHDLRLRLKNYMMPAKGKKTDKQPLQKPSHCTIYVAKNYPPWQHTTLSVLRKHFEANNGKLPDNKVIASELGSMPELKKYMKKVMPFVAMIKENLEKMGPRILDLQLEFDEKAVLMENIVYLTNSLELEHIEVKFASEAEDKIREDCCPGKPLNVFRIEPGVSVSLVNPQPSNGHFSTKIEIRQGDNCDSIIRRLMKMNRGIKDLSKVKLMRFDDPLLGPRRVPVLGKEYTEKTPISEHAVFNVDLMSKKIHLTENGIRVDIGDTIIYLVH |  | H844A and R845A mutants lost their GAP activity while WT LRS showed GAP activity
LRS (759-1176 a.a) fragment R845A (protein) MADAGILRLYTWVEWVKEMVANWDSLRSGPASTFNDRVFASELNAGIIKTDQNYEKMMFKEALKTGFFEFQAAKDKYRELAVEGMHAELVFRFIEVQTLLLAPFCPHLCEHIWTLLGKPDSIMNASWPVAGPVNEVLIHSSQYLMEVTHDLRLRLKNYMMPAKGKKTDKQPLQKPSHCTIYVAKNYPPWQHTTLSVLRKHFEANNGKLPDNKVIASELGSMPELKKYMKKVMPFVAMIKENLEKMGPRILDLQLEFDEKAVLMENIVYLTNSLELEHIEVKFASEAEDKIREDCCPGKPLNVFRIEPGVSVSLVNPQPSNGHFSTKIEIRQGDNCDSIIRRLMKMNRGIKDLSKVKLMRFDDPLLGPRRVPVLGKEYTEKTPISEHAVFNVDLMSKKIHLTENGIRVDIGDTIIYLVH |  | H844A and R845A mutants lost their GAP activity while WT LRS showed GAP activity
